Assay results: patent US20150315277A1 (published 2015)

Biological target: recombinant human DLL4 (hDLL4) (human, UniProt Q9NR61 27-524)
Experiment: Biacore

Chain of recombinant human DLL4 (hDLL4) (Q9NR61 27-524): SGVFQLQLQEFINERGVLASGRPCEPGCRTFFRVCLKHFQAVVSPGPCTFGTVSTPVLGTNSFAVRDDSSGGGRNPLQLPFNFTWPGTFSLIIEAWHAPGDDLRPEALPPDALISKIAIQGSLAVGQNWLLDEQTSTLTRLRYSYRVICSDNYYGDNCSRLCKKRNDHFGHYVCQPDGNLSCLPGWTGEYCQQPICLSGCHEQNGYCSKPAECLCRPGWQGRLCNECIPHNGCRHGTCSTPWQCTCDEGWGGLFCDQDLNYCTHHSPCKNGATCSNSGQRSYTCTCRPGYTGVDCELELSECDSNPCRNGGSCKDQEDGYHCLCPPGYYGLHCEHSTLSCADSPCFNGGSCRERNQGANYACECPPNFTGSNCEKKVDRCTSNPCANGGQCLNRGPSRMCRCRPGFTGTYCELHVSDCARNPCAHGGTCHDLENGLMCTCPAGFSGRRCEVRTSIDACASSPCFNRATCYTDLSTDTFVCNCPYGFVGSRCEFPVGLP

Kd: 19.9 nM
B1: Notch-1 Fc (rhNotch1-Fc) (Fc fusion)
chain: ARGPRCSQPGETCLNGGKCEAANGTEACVCGGAFVGPRCQDPNPCLSTPCKNAGTCHVVDRRGVADYACSCALGFSGPLCLTPLDNACLTNPCRNGGTCDLLTLTEYKCRCPPGWSGKSCQQADPCASNPCANGGQCLPFEASYICHCPPSFHGPTCRQDVNECGQKPGLCRHGGTCHNEVGSYRCVCRATHTGPNCERPYVPCSPSPCQNGGTCRPTGDVTHECACLPGFTGQNCEENIDDCPGNNCKNGGACVDGVNTYNCRCPPEWTGQYCTEDVDECQLMPNACQNGGTCHNTHGGYNCVCVNGWTGEDCSENIDDCASAACFHGATCHDRVASFYCECPHGRTGLLCHLNDACISNPCNEGSNCDTNPVNGKAICTCPSGYTGPACSQDVDECSLGANPCEHAGKCINTLGSFECQCLQGYTGPRCEIDVNECVSNPCQNDATCLDQIGEFQCICMPGYEGVHCEVNTDECASSPCLHNGRCLDKINEFQCECPTGFTGHLCQ
